According to paper doi:10.1101/2023.07.18.549521 (bioRxiv, 2023):

B1: tepsin LIR motif peptide (residues 185-193) (peptide)
peptide: SGGGWDELDS
B2: full-length tepsin-GST (residues 1-525) (natural protein)
chain: MAAAPPLRDRLSFLHRLPILLKGTSDDDVPCPGYLFEEIAKISHESPGSSQCLLEYLLSRLHSSSGHGKLKVLKILLYLCSHGSSFFLLILKRNSAFIQEAAAFAGPPDPLHGNSLYQKVRAAAQDLGSTLFSDTVLPLAPSQPLGTPPATGMGSQARPHSTLQGFGYSKEHGRTAVRHQPGQAGGGWDELDSGPSSQNSSQNSDLSRVSDSGSHSGSDSHSGASREPGDLAERVEVVALSDCQQELSLVRTVTRGPRAFLSREEAQHFIKACGLLNCEAVLQLLTCHLRGTSECTQLRALCAIASLGSSDLLPQEHILLRTRPWLQELSMGSPGPVTNKATKILRHFEASCGQLSPARGTSAEPGPTAALPGPSDLLTDAVPLPGSQVFLQPLSSTPVSSRSPAPSSGMPSSPVPTPPPDASPIPAPGDPSEAEARLAESRRWRPERIPGGTDSPKRGPSSCAWSRDSLFAGMELVACPRLVGAGAAAGESCPDAPRAPQTSSQRTAAKEPPGSEPSAFAFLNA
B3: AP-4 β4 appendage domain (residues 615-739) (domain or fragment, UniProt Q9Y6B7 615-739, looked up)
chain: SGALMLVPNRQLTADYFEKTWLSLKVAHQQVLPWRGEFHPDTLQMALQVVNIQTIAMSRAGSRPWKAYLSAQDDTGCLFLTELLLEPGNSEMQISVKQNEARTETLNSFISVLETVIGTIEEIKS

What was measured:
[1] = biological target: T1, His6x-LC3B (residues 1-120) (UniProt Q9GZQ8 1-120); assay: ITC
[2] = biological target: T1, His6x-LC3B (residues 1-120); assay: pull-down
[3] = biological target: B2; assay: pull-down

Binder: B1
Kd [1]: 44.4 µM

Binder: B2
binding result [2]: binds

Binder: B3
binding result [3]: binds
